Assay [1] has as its target SNT-1 PTB domain (residues 11-140 of SEQ ID NO:1) (human) (UniProt Q8WU20). In words: method not stated.
The target in assay [2] is T1, SNT-1 PTB domain (residues 11-140 of SEQ ID NO:1) (human, UniProt Q8WU20 11-140).
T1 construct: Recombinant from E. coli, isotope labelled for NMR; His6 tag cleaved with thrombin; Used in NMR and ITC; also called PTB Domain of SNT-1; SNT PTB domain
T1 sequence: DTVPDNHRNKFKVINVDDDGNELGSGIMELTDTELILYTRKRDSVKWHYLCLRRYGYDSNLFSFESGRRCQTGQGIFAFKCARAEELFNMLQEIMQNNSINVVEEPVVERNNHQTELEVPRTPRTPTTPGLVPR
In words: isothermal titration calorimetry (ITC).

Assay [3] addresses T2, juxtamembrane region of hFGFR1 as GAL4 DNA binding domain (BD) fusion protein, wild type (called hFGFR1 (human); SEQ ID NO:2 is …).
T2 construct: Yeast two-hybrid construct; also called wild type hFGFR1
Briefly: yeast two-hybrid, colony growth on His-, Leu-, Trp- medium. On the procedure:
Mutagenesis and Yeast Two-Hybrid Binding Assays: The yeast two-hybrid binding studies of the SNT-1 PTB domain binding to hFGFR1 or tyrosine-phosphorylated TRK were performed as described previously [Xu et al., J. Biol. Chem. 273:17987-17990 (1998)]. Briefly, SNT-1 cDNA fragments were cloned into the pACT2 expression vector (Clontech) for expression as GAL4 DNA activation domain (AD) fusion proteins followed by C-terminal AU1-epitope tags. The juxtamembrane region of hFGFR1 was cloned into the pAS2-1 expression vector (Clontech) for expression as a GAL4 DNA binding domain (BD) fusion protein. This plasmid served as a template for site-directed mutagenesis of hFGFR1 using the QuikChange kit (Stratagene). DNA sequencing confirmed the mutations. AD and BD plasmids were co-transformed into Saccharomyces cerevisiae strain pJ69-4A and plated onto selective media. The synthetic medium lacking the amino acids Leu and Trp (Leu⁻, Trp⁻) selected for plasmid uptake. […] Levels of protein interaction were scored by relative colony growth on these plates. […] Similarly, expression of wild type and mutant hFGFR1 was detected by immunoprecipitation with a rabbit polyclonal antibody specific for BD (Santa Cruz Biotech) and western blotting with mouse monoclonal anti-BD antibody (Santa Cruz Biotech).

In assay [1], “tyrosine-phosphorylated peptide LVIAGNPApYRS (SEQ ID NO:4)” yielded a Kd of 1 µM and a fold higher affinity than for the FGFR derived peptide of SEQ ID NO:3 of 10 fold.

B1: hFGFR1 peptide, 22-residue peptide derived from the juxtamembrane region of hFGFR1 (residues 409-430 of SEQ ID NO:2), HSQMAVHKLAKSIPLRRQVTVS (SEQ ID NO:3) (peptide)
peptide: HSQMAVHKLAKSIPLRRQVTVS
notes: Synthetic peptide, not phosphorylated; also called FGFR peptide; FGF receptor peptide
As to B1, in assay [2], the Kd was approximately 10 µM.

B2: truncated SNT-1 PTB domain lacking the β8 region (residues 2-111), GAL4 AD fusion (other, not shown: large carriers; small tags and cut ends)
chain: GSCCSCPDKDTVPDNHRNKFKVINVDDDGNELGSGIMELTDTELILYTRKRDSVKWHYLCLRRYGYDSNLFSFESGRRCQTGQGIFAFKCARAEELFNMLQEIMQNNSIN
notes: Yeast two-hybrid construct; also called SNT-1 PTB domain protein lacking the β8 strand
Consider B2, for which, in assay [3], the binding result is “no binding”.

The values are drawn from patent US20030040612A1 (MOUNT SINAI SCHOOL OF MEDICINE, published 2003).
